Measured values taken from patent publication US20220332804A1 (CSL INNOVATION, published 2022).
Positions count from the first letter of the chain named.

Tests used:
Test in all cases: SPR; KD relative to WT C2;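 further: biacore SPR at 37 °C, anti-C2 mAbs captured on an anti-human IgG chip, alanine or serine C2 surface mutants tested, KD from 1:1 fit compared with wild-type C2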
human C2 V448A = target: T1, human C2 V448A (human, UniProt P06681 21-752)
T1 sequence: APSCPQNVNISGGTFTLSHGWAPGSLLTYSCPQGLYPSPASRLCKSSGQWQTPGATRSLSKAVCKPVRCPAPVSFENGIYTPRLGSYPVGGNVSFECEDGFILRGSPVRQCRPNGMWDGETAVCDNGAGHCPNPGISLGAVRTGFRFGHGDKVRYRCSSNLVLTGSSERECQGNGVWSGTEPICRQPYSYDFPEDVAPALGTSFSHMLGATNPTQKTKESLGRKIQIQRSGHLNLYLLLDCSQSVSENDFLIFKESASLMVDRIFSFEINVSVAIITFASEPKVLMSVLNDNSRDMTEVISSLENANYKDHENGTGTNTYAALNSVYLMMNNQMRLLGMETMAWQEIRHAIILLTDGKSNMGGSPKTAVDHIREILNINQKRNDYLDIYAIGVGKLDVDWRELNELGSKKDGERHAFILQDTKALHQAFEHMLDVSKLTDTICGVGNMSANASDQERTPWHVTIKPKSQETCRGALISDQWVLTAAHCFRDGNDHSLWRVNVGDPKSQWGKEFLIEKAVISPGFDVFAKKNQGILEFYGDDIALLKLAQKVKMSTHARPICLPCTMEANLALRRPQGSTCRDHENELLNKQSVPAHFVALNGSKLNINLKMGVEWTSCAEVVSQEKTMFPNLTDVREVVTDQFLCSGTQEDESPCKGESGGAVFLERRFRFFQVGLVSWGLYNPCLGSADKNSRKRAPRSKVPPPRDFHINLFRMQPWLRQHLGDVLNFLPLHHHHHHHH

human C2 G466A = target: T2, human C2 G466A (human, UniProt P06681 21-752)
T2 sequence: T1 sequence with A428V, G446A

human C2 A470S = target: T3, human C2 A470S (human, UniProt P06681 21-752)
T3 sequence: T1 sequence with A428V, A450S

human C2 R519A = target: T4, human C2 R519A (human, UniProt P06681 21-752)
T4 sequence: T1 sequence with A428V, R499A

B1: RF16-214 (antibody, V domains shown)
VH: EVQLLESGGGLVQPGGSLRLSCAASGFTFSWYQMMWVRQAPGKGLEWVSRIYPSGGGTAYADSVKGRFTISRDNSKNTLYLQMNSLRAEDTAVYYCARDAGYGDNWGQGTLVTVSS
VL: QSALTQPPSVSVSPGQTASITCSGDKLGEKYASWYQQKAGQSPVMVIYQDRKRPSGIPERFSGSNSGNTATLTISGTQAMDEADYYCQAWDTRAVVFGGGTKLTVLG
Question: B1 was tested. Which Fold diff (human C2 V448A) did it give?
Answer: 0 fold

Question: What about the Fold diff (human C2 G466A) of the same binder?
Answer: 5 fold

Question: And the Fold diff (human C2 A470S)?
Answer: 1 fold

Question: What about the Fold diff (human C2 R519A) of the same binder?
Answer: 1 fold
